PMC9709245, “The stem region of α1,6-fucosyltransferase FUT8 is required for multimer formation but not catalytic activity” (The Journal of Biological Chemistry, 2022)
Substitutions are numbered along the chain they refer to. In names and notes the source's numbering stands. Values belong to the binder of their own block, whether it stands above or below them.

Columns and labels:
[1] = target: the molecule itself; test: split reporter (BiFC, NanoBiT); NanoBiT; LgBiT and SmBiT fusions coexpressed in HEK293 FUT8KO cells; 0.6 μg of lysate protein (TBS, 1% Triton X-100) with Nano-Glo Live Cell Substrate at RT; luminescence relative to empty-vector (Mock) sample
[2] = target: T1, alpha-1,6-fucosyltransferase FUT8 WT (human, UniProt Q9BYC5 1-575); test: co-IP; lysates (TBS, 1% Triton X-100) of HEK293 FUT8KO cells coexpressing Myc-tagged FUT8 WT or mutant with 3xFLAG-FUT8 WT; anti-DYKDDDDK antibody magnetic beads, 4 °C overnight; anti-Myc blot; IP signal divided by input, relative to FUT8 WT; conditions: partners not purified
T1 construct: No chain bears both Myc and 3xFLAG; also called Myc-FUT8; Myc-tagged FUT8; source: HEK293 FUT8KO, transfected, in lysate; not shown: Myc (copy from pcDNA6-mycHisA), C-terminal, kept; His tag (from the vector pcDNA6-mycHisA); 3xFLAG (other copy; from pME-3xFLAG), C-terminal, kept
T1 sequence (looked up): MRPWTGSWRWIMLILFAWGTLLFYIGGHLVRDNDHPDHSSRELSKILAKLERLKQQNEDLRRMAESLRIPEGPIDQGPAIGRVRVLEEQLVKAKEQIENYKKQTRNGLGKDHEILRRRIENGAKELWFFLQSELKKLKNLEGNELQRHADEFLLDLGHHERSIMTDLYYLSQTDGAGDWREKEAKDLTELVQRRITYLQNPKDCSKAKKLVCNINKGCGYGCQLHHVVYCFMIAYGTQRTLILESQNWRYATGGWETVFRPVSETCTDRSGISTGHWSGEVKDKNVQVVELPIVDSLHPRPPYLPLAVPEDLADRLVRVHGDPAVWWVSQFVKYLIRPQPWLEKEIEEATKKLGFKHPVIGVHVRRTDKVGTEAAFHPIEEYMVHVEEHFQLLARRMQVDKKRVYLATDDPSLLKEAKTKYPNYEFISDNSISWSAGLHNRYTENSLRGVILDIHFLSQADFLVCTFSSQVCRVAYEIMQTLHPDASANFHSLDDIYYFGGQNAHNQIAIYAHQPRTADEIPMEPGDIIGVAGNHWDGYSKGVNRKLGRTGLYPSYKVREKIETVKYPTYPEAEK

[3] = target: the molecule itself; test: native gel or EMSA; Blue Native PAGE (4% to 16%) of purified soluble His-FUT8, Western blot with anti-FUT8

B1: FUT8 stem (N-terminal part of FUT8, cytosolic region to stem region) fused with LgBiT or SmBiT (domain or fragment, human, UniProt Q9BYC5 1-108, looked up)
chain: MRPWTGSWRWIMLILFAWGTLLFYIGGHLVRDNDHPDHSSRELSKILAKLERLKQQNEDLRRMAESLRIPEGPIDQGPAIGRVRVLEEQLVKAKEQIENYKKQTRNGL
notes: human FUT8, 1st to 326th base of the cDNA: cytosolic region, transmembrane region and stem region (stem ends at Leu108); Two differently tagged copies of the same fragment; no chain bears both LgBiT and SmBiT; The 326th base is two bases past codon 108; also called FUT8 stem-LgBiT; FUT8 stem-SmBiT; source: HEK293 FUT8KO, transfected, in lysate; not shown: LgBiT (one copy; vector pBiT1.1-C …)
relative luminescence (NanoBiT, relative to Mock) [1]: 165 relative to Mock

coprecipitated anti-Myc signal (IP/input) relative to FUT8 WT [2]: 0.0934 relative to FUT8 WT
B2: FUT8Δhelix 1 (enzyme, human, UniProt Q9BYC5 1-575, looked up)
chain: MRPWTGSWRWIMLILFAWGTLLFYIGGHLVRDNDHRIPEGPIDQGPAIGRVRVLEEQLVKAKEQIENYKKQTRNGLGKDHEILRRRIENGAKELWFFLQSELKKLKNLEGNELQRHADEFLLDLGHHERSIMTDLYYLSQTDGAGDWREKEAKDLTELVQRRITYLQNPKDCSKAKKLVCNINKGCGYGCQLHHVVYCFMIAYGTQRTLILESQNWRYATGGWETVFRPVSETCTDRSGISTGHWSGEVKDKNVQVVELPIVDSLHPRPPYLPLAVPEDLADRLVRVHGDPAVWWVSQFVKYLIRPQPWLEKEIEEATKKLGFKHPVIGVHVRRTDKVGTEAAFHPIEEYMVHVEEHFQLLARRMQVDKKRVYLATDDPSLLKEAKTKYPNYEFISDNSISWSAGLHNRYTENSLRGVILDIHFLSQADFLVCTFSSQVCRVAYEIMQTLHPDASANFHSLDDIYYFGGQNAHNQIAIYAHQPRTADEIPMEPGDIIGVAGNHWDGYSKGVNRKLGRTGLYPSYKVREKIETVKYPTYPEAEK
notes: human FUT8; start codon to the 105th base joined to the 202nd to 1725th base of the cDNA, so that Helix 1 (Pro36-Leu67) is missing; also called Myc-tagged FUT8 Δhelix 1; source: HEK293 FUT8KO, transfected, in lysate; not shown: Myc, C-terminal, kept

coprecipitated anti-Myc signal (IP/input) relative to FUT8 WT [2]: 0.122 relative to FUT8 WT
B3: FUT8Δstem-GSx40 (enzyme, human)
chain: MRPWTGSWRWIMLILFAWGTLLFYIGGHLGSGSGSGSGSGSGSGSGSGSGSGSGSGSGSGSGSGSGSGSGSGSGSGSGSGSGSGSGSGSGSGSGSGSGSGSGSGSGSGSGKDHEILRRRIENGAKELWFFLQSELKKLKNLEGNELQRHADEFLLDLGHHERSIMTDLYYLSQTDGAGDWREKEAKDLTELVQRRITYLQNPKDCSKAKKLVCNINKGCGYGCQLHHVVYCFMIAYGTQRTLILESQNWRYATGGWETVFRPVSETCTDRSGISTGHWSGEVKDKNVQVVELPIVDSLHPRPPYLPLAVPEDLADRLVRVHGDPAVWWVSQFVKYLIRPQPWLEKEIEEATKKLGFKHPVIGVHVRRTDKVGTEAAFHPIEEYMVHVEEHFQLLARRMQVDKKRVYLATDDPSLLKEAKTKYPNYEFISDNSISWSAGLHNRYTENSLRGVILDIHFLSQADFLVCTFSSQVCRVAYEIMQTLHPDASANFHSLDDIYYFGGQNAHNQIAIYAHQPRTADEIPMEPGDIIGVAGNHWDGYSKGVNRKLGRTGLYPSYKVREKIETVKYPTYPEAEK
notes: human FUT8, start codon to the 87th base of the cDNA; the stem region Val30-Leu108 is replaced; glycine-serine repeat of 80 amino acids; human FUT8, 325th to 1725th base of the cDNA (coiled-coil domain to the C terminus); Anti-Myc blots show two bands (full size and about 50 kDa); also called Myc-tagged FUT8Δstem-GSx40; source: HEK293 FUT8KO, transfected, in lysate; not shown: Myc, C-terminal, …

B4: soluble His-FUT8 (Arg68-Lys575) (domain or fragment, human, UniProt Q9BYC5 68-575, looked up)
chain: RIPEGPIDQGPAIGRVRVLEEQLVKAKEQIENYKKQTRNGLGKDHEILRRRIENGAKELWFFLQSELKKLKNLEGNELQRHADEFLLDLGHHERSIMTDLYYLSQTDGAGDWREKEAKDLTELVQRRITYLQNPKDCSKAKKLVCNINKGCGYGCQLHHVVYCFMIAYGTQRTLILESQNWRYATGGWETVFRPVSETCTDRSGISTGHWSGEVKDKNVQVVELPIVDSLHPRPPYLPLAVPEDLADRLVRVHGDPAVWWVSQFVKYLIRPQPWLEKEIEEATKKLGFKHPVIGVHVRRTDKVGTEAAFHPIEEYMVHVEEHFQLLARRMQVDKKRVYLATDDPSLLKEAKTKYPNYEFISDNSISWSAGLHNRYTENSLRGVILDIHFLSQADFLVCTFSSQVCRVAYEIMQTLHPDASANFHSLDDIYYFGGQNAHNQIAIYAHQPRTADEIPMEPGDIIGVAGNHWDGYSKGVNRKLGRTGLYPSYKVREKIETVKYPTYPEAEK
notes: human FUT8, soluble form from Arg68 to the C terminus (Lys575); Plasmid pcDNA-IH/FUT8; also called purified soluble FUT8; recombinant soluble FUT8; source: COS7, transfected, purified from the culture medium (Ni2+ column, NAP-5 desalting)
binding result [3]: binds

coprecipitated anti-Myc signal (IP/input) relative to FUT8 WT [2]: 1.56 relative to FUT8 WT
B5: FUT8 Y100A/R105A (enzyme, human, UniProt Q9BYC5 1-575, looked up)
chain: T1 sequence (looked up) with Y100A, R105A
notes: human FUT8 with two point mutations in Helix 2 of the stem region; also called Myc-tagged FUT8 Y100A/R105A; source: HEK293 FUT8KO, transfected, in lysate; not shown: Myc, C-terminal, kept

coprecipitated anti-Myc signal (IP/input) relative to FUT8 WT [2]: 0.5 relative to FUT8 WT
B6: FUT8Δhelix 2 (enzyme, human, UniProt Q9BYC5 1-575, looked up)
chain: MRPWTGSWRWIMLILFAWGTLLFYIGGHLVRDNDHPDHSSRELSKILAKLERLKQQNEDLRRMAESLRIPEGPIDQGPNGLGKDHEILRRRIENGAKELWFFLQSELKKLKNLEGNELQRHADEFLLDLGHHERSIMTDLYYLSQTDGAGDWREKEAKDLTELVQRRITYLQNPKDCSKAKKLVCNINKGCGYGCQLHHVVYCFMIAYGTQRTLILESQNWRYATGGWETVFRPVSETCTDRSGISTGHWSGEVKDKNVQVVELPIVDSLHPRPPYLPLAVPEDLADRLVRVHGDPAVWWVSQFVKYLIRPQPWLEKEIEEATKKLGFKHPVIGVHVRRTDKVGTEAAFHPIEEYMVHVEEHFQLLARRMQVDKKRVYLATDDPSLLKEAKTKYPNYEFISDNSISWSAGLHNRYTENSLRGVILDIHFLSQADFLVCTFSSQVCRVAYEIMQTLHPDASANFHSLDDIYYFGGQNAHNQIAIYAHQPRTADEIPMEPGDIIGVAGNHWDGYSKGVNRKLGRTGLYPSYKVREKIETVKYPTYPEAEK
notes: human FUT8; start codon to the 234th base joined to the 316th to 1725th base of the cDNA, so that Helix 2 (Ala79-Arg105) is missing; also called Myc-tagged FUT8 Δhelix 2; source: HEK293 FUT8KO, transfected, in lysate; not shown: Myc, C-terminal, kept

coprecipitated anti-Myc signal (IP/input) relative to FUT8 WT [2]: 0.127 relative to FUT8 WT
B7: FUT8Δstem-GSx22 (enzyme, human)
chain: MRPWTGSWRWIMLILFAWGTLLFYIGGHLGSGSGSGSGSGSGSGSGSGSGSGSGSGSGSGSGSGSGSGSGSGSGKDHEILRRRIENGAKELWFFLQSELKKLKNLEGNELQRHADEFLLDLGHHERSIMTDLYYLSQTDGAGDWREKEAKDLTELVQRRITYLQNPKDCSKAKKLVCNINKGCGYGCQLHHVVYCFMIAYGTQRTLILESQNWRYATGGWETVFRPVSETCTDRSGISTGHWSGEVKDKNVQVVELPIVDSLHPRPPYLPLAVPEDLADRLVRVHGDPAVWWVSQFVKYLIRPQPWLEKEIEEATKKLGFKHPVIGVHVRRTDKVGTEAAFHPIEEYMVHVEEHFQLLARRMQVDKKRVYLATDDPSLLKEAKTKYPNYEFISDNSISWSAGLHNRYTENSLRGVILDIHFLSQADFLVCTFSSQVCRVAYEIMQTLHPDASANFHSLDDIYYFGGQNAHNQIAIYAHQPRTADEIPMEPGDIIGVAGNHWDGYSKGVNRKLGRTGLYPSYKVREKIETVKYPTYPEAEK
notes: human FUT8, start codon to the 87th base of the cDNA; the stem region Val30-Leu108 is replaced; glycine-serine repeat of 44 amino acids; human FUT8, 325th to 1725th base of the cDNA (coiled-coil domain to the C terminus); Anti-Myc blots show two bands (full size and about 50 kDa); also called Myc-tagged FUT8Δstem-GSx22; source: HEK293 FUT8KO, transfected, in lysate; not shown: Myc, C-terminal, …
